Numbering of substitutions follows the chain as printed. Values joined by “and” are separate entries in the source; they are usually repeats but may differ in a detail not shown here. Equal values may be shown once.
B1: p66CH2CB WT (N-terminal domains CH2 and CB of p66Shc, residues 1-150) (domain or fragment, UniProt P29353-1 1-150, looked up)
chain: MDLLPPKPKYNPLRNESLSSLEEGASGSTPPEELPSPSASSLGPILPPLPGDDSPTTLCSFFPRMSNLRLANPAGGRPGSKGEPGRAADDGEGIVGAAMPDSGPLPLLQDMNKLSGGGGRRTRVEGGQLGGEEWTRHGSFVNKPTRGWLH
notes: p66Shc (largest polypeptide of the shcA locus), residues 1-150 (CH2 and CB domains); Exists as a reduced dimer and an oxidised, disulfide-bridged tetramer; used as a mixture or as isolated states; also called p66Shc N-terminal domain; source: E. coli BL21(DE3)Rosetta2, purified (Talon resin, size exclusion on superose 12)
B2: p66CH2CB-Ser36Asp (domain or fragment, UniProt P29353 1-150, looked up)
chain: B1 chain with S36D
notes: p66Shc, residues 1-150 (CH2 and CB domains), Ser36Asp phosphomimetic; Dimer and tetramer forms were both used; also called Ser36Asp mutant; p66CH2CB-Ser36Asp mutant simulating Ser36 phosphorylation; source: E. coli BL21(DE3)Rosetta2, purified (Talon resin, size exclusion on superose 12)
B3: Peroxiredoxin 1 (Prx1) WT, recombinant (enzyme, mouse, UniProt P35700 1-199, looked up)
chain: MSSGNAKIGYPAPNFKATAVMPDGQFKDISLSEYKGKYVVFFFYPLDFTFVCPTEIIAFSDRADEFKKLNCQVIGASVDSHFCHLAWINTPKKQGGLGPMNIPLISDPKRTIAQDYGVLKADEGISFRGLFIIDDKGILRQITINDLPVGRSVDEIIRLVQAFQFTDKHGEVCPAGWKPGSDTIKPDVNKSKEYFSKQK
notes: Peroxiredoxin 1, gene PCR-amplified from mouse colon cDNA, cloned into pET151/D-Topo; Mainly a decamer (five dimers) on the BN-gel; also called decameric Prx1; source: E. coli BL21(DE3)Rosetta2, purified (Talon resin, size exclusion on superose 12); copies: 10
B4: Prx1-Cys83Ser (enzyme, mouse, UniProt P35700 1-199, looked up)
chain: B3 chain with C83S
notes: Peroxiredoxin 1 from mouse colon cDNA in pET151/D-Topo, Cys83Ser; Constitutively dimeric; also called Cys83Ser regulatory mutant; dimeric Prx1-Cys83Ser mutant; source: E. coli BL21(DE3)Rosetta2, purified (Talon resin, size exclusion on superose 12)
B5: Prx1-Cys52Ser (enzyme, mouse, UniProt P35700 1-199, looked up)
chain: B3 chain with C52S
notes: Peroxiredoxin 1 from mouse colon cDNA in pET151/D-Topo, Cys52Ser (peroxidasic cysteine); also called Prx1-Cys52Ser active site mutant; source: E. coli BL21(DE3)Rosetta2, purified (Talon resin, size exclusion on superose 12); copies: 10

What was measured:
[1] = target: the molecule itself; assay: SEC; oligomeric states separated on a superose 12 column in 20 mM Tris pH 7.8 + 150 mM NaCl
[2] = target: the molecule itself; assay: native gel or EMSA; BN-PAGE of purified recombinant proteins incubated for 1 hour at room temperature (20 μg p66CH2CB with 40 μg Prx1 WT or 20 μg Prx1-Cys83Ser); bands cut out and separated in a second, denaturing SDS-PAGE dimension
[3] = target: B1; assay: as above; conditions: both partners purified
[4] = target: the molecule itself; assay: native gel or EMSA; BN-PAGE; 15 μg p66CH2CB with 30 μg decameric Prx1-Cys52Ser and 5/10/20 μg Trx1 in the presence of 3 mM EDTA

| Binder | stoichiometry N [1] | stoichiometry N [2] | other results |
| --- | --- | --- | --- |
| B1 | 2 | 4 | – |
| B2 | 2 and 4 | – | – |
| B3 | – | – | stoichiometry N [3]: 1 |
| B4 | – | 2 | – |
| B5 | – | – | stoichiometry N [4]: 10 |
